Measurements reported in patent US20250092426, “CAS ENDONUCLEASES AND RELATED METHODS” (Flagship Pioneering Innovations VII, LLC, published 2025).

Target: T1, CasEnd-26 (synthetic construct)
T1 chain: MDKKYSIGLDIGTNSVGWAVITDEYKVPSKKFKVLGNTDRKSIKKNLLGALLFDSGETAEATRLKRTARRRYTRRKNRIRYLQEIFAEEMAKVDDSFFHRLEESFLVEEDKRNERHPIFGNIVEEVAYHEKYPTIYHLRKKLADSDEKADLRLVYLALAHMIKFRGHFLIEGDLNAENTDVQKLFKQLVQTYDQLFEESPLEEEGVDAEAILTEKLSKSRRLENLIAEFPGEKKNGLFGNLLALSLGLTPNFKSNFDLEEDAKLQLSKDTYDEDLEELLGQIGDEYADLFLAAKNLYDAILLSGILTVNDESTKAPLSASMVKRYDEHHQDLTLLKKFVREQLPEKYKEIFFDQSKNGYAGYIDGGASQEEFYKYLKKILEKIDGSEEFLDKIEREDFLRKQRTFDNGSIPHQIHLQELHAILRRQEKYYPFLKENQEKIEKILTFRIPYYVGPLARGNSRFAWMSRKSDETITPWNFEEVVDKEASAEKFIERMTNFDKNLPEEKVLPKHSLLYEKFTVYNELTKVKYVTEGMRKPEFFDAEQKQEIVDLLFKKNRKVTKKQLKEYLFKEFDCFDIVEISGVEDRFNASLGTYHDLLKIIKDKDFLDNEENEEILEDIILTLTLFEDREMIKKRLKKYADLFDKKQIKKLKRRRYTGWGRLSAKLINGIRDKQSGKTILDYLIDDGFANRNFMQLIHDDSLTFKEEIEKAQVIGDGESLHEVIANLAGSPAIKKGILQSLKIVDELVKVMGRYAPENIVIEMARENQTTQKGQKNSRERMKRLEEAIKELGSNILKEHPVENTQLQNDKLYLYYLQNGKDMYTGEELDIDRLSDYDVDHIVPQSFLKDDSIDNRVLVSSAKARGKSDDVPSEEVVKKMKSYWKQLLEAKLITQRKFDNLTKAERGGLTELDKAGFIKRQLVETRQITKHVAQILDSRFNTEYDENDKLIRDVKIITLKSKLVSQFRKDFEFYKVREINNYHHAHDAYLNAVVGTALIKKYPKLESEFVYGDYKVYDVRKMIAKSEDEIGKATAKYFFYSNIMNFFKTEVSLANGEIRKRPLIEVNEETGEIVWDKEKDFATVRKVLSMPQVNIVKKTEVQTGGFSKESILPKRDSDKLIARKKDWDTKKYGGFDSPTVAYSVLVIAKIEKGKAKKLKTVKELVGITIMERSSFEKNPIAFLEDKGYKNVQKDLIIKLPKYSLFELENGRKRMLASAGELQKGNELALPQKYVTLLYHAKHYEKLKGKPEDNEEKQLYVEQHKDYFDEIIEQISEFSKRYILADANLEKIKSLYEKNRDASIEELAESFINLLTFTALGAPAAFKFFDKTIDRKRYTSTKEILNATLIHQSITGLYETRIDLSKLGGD
Experiment: cell_activity; +++; HEK293T; PAM not stated
Outline: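 Editing activity was scored as the fraction of GFP+ cells on day 4 by flow cytometry. BFP-expressing HEK293T cells (250,000) received by nucleofection 200 ng plasmid for the RT-Cas fusion protein and 200 ng template RNA plasmid designed to convert BFP to GFP.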

B1: BFP-to-GFP template RNA ; BFP reporter protospacer (ssRNA ; dsDNA)
RNA: GCCGAAGCACUGCACGCCGUGUUUUAGAGCUAGAAAUAGCAAGUUAAAAUAAGGCUAGUCCGUUAUCAACUUGAAAAAGUGGCACCGAGUCGGUGCACCCUGACGUACGGCGUGCAGUGCUU
DNA 1: GCCGAAGCACTGCACGCCGT
DNA 2: ACGGCGTGCAGTGCTTCGGC
With B1 the activity was ≥ 100 % of reference.
